Substrate in this data set: Nc1ncnc2c1ncn2[C@@H]1O[C@H](COP(=O)(O)OP(=O)(O)OP(=O)(O)O)[C@@H](O)[C@H]1O
Kind of data set: purified protein. The following applies: co-substrate Co(II)Cbi^+.

B1: SeCobA (Salmonella enterica subsp. enterica serovar Typhimurium str. LT2) (protein)
chain: MSDERYQQRQQKVKDRVDARVAQAQEERGIIIVFTGNGKGKTTAAFGTAARAVGHGKNVGVVQFIKGTWPNGERNLLEPHGVEFQVMATGFTWETQNREADTAACMAVWQHGKRMLADPLLDMVVLDELTYMVAYDYLPLEEVISALNARPGHQTVIITGRGCHRDILDLADTVSELRPVKHAFDAGVKAQMGIDY
For B1, the Km amounted to 25.4 ± 9.0 µM, the kcat is 0.0067 s⁻¹ and the kcat/Km came to 260 M⁻¹ s⁻¹.

In general, Km refers to the substrate concentration at which the rate is half of its maximum. The term kcat denotes the number of substrate molecules converted per active site and unit of time at saturation. In general, kcat/Km refers to the second-order rate constant that governs catalysis at low substrate concentration.

For the origin of these results see paper PMC4278676.
